Target: human octamer-binding transcription factor 4 (OCT4), endogenous in NCCIT and NTERA-2 cells (UniProt Q01860)
Chain of UniProt Q01860 (Q01860 whole entry, looked up): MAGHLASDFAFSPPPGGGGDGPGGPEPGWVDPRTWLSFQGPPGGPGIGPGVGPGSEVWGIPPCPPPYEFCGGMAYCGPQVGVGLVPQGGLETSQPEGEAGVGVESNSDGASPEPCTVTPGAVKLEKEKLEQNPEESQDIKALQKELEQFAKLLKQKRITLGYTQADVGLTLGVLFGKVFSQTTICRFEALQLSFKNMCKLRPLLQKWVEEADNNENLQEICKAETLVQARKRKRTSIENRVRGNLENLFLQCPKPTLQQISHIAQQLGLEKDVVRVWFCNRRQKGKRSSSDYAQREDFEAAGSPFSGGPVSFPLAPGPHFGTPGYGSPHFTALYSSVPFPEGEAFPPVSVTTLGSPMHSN

## protein phosphatase 1 (PP1), endogenous in NCCIT and NTERA-2 cells
  phosphorylated OCT4 after doxycycline-dependent shRNA suppression of PP1 (western blotting and immunofluorescence staining): when the expression of PP1 was suppressed using doxycycline, the phosphorylated OCT4 was increased
  phosphorylation of OCT4 after okadaic acid treatment (western blotting and immunofluorescence staining): when PP1 was inhibited, the phosphorylation of OCT4 was increased

Reference: patent US20210069289
